From PMC3744345

Assays:
amyloid-β (Homo sapiens) = amyloid-β (Homo sapiens) (UniProt P05067); settings: cited from earlier work
[1] = biological target: recombinant extracellular domain of sortilin (UniProt Q99523); assay: SPR
recombinant extracellular domain of sortilin, sequence (Q99523 78-755): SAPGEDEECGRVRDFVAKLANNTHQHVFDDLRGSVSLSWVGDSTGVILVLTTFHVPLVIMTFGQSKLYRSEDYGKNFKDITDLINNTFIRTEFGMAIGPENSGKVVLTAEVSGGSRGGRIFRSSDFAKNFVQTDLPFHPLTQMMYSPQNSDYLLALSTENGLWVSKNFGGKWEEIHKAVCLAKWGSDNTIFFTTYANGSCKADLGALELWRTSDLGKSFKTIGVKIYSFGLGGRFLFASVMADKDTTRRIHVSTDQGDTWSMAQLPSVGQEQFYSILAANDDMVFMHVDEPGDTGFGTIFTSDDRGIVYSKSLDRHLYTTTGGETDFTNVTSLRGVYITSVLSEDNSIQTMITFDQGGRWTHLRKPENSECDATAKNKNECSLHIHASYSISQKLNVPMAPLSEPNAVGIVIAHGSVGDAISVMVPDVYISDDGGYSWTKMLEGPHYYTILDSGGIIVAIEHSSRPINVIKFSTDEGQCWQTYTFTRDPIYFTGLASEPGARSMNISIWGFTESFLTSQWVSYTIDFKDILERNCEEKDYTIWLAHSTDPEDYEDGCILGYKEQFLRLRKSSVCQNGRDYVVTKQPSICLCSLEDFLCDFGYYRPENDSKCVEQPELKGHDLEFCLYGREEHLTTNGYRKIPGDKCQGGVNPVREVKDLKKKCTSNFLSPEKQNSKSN

amyloid-β (Homo sapiens), sequence (P05067 672-711): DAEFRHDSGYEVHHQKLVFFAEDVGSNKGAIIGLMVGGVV

Substance | Kd (amyloid-β (Homo sapiens)) [nM] | Kd [1] [nM]
LRP1 (from UniProt Q07954) | 0.57 | –
recombinant human APOE2 (from UniProt P02649 19-317) (natural protein) | – | 117
recombinant human APOE4 (from UniProt P02649 19-317) (natural protein) | – | 114
